Among the data in article PMC9324194 are Kd values, retold here.

The target of the data set is Cy3-APE1 (human) (UniProt P27695). Kind of data set: FRET titration. Conditions: N1 = tetrahydrofuran (THF), EMSA: 2 uM protein and DNA, 20 mM potassium phosphate pH 7.0, 50 mM NaCl, 5 mM MgCl2, 2 mM DTT, 0.01% Tween-20, 30 min room temperature, gel at 4 °C. In general terms: Mobility shift assays separate free from complexed probe on a gel.
UniProt P27695, sequence (P27695 whole entry): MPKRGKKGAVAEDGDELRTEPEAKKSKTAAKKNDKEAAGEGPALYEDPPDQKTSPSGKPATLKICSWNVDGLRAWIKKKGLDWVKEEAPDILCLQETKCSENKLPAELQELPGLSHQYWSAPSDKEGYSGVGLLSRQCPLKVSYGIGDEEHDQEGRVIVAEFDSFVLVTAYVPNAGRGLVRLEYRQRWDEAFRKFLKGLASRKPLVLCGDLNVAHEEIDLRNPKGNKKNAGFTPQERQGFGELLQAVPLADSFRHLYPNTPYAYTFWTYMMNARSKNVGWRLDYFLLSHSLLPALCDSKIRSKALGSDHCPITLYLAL

Turning to “NCGGTCGATCGTAAGATCGACCGTGCGCTGGAGCTTGCTCCAGCGC [Cy5-P (Cy5-labelled product)]”, the Kd – broadly, a measure of binding affinity in units of concentration – amounted to 5 nM.
